According to publication doi:10.1101/2021.11.23.469668 (bioRxiv, 2021):

Experiments:
Experiment in all cases: SEC
[1] = target: Atlas GC fusion loop mutant F136A/F137A (Ancylostoma ceylanicum (endogenous retrovirus Atlas virus))
[2] = target: Atlas GC GPL binding pocket mutant R86A (Ancylostoma ceylanicum (endogenous retrovirus Atlas virus))
[3] = target: the molecule itself

## Atlas GC fusion loop mutant F136A/F137A (domain or fragment)
[1]
  stoichiometry N: 3

## Atlas GC GPL binding pocket mutant R86A (domain or fragment)
[2]
  stoichiometry N: 3

B1: Atlas virus GC ectodomain fragment (polyprotein residues 2330-2772) (domain or fragment)
chain: CSEVISVTSTEEVCTIQENKETCTFNHATTITLQPLQQQTCLTLNDPEKRPMGMLTVKPDGIKFRCNKKIEFFTRDHQIVSESVHRCHRAGSCHSDECHHVKDTDALPEFSSEANSRPGYTSCSSSCGCITCDGCFFCEPSCLFHRLYAIPTTPTIYSIFYCPSWELEVDAEISLQREDETTTSTIRLLPGRTSTWNNIRFSLIGTIVPQLPILSSAFVTNGRQTSIVKPAYAGQLQSNSVGQLQCPNLEAAKQFECHFSRNLCTCTNALHKVSCTCYDGSVEDHMEALPLPQTSKNFLVFEKDRNIYAKTHVGSALQLHIVAQDLKITTVKHTSHCQVEASDLSGCYSCTSGASLTLSCKSDNGEVLANMKCNEQTHVIRCTESGFINNILLMFDTSEVAADCTAACPGGIVNFTIKGLLAFVNERIISQSYSATDVERNIK
modifications: N-linked glycan at Asn414 (GC numbering)
[3]
  stoichiometry N: 3
